# Assays:
# [1] = test system: normal cell lines (fibroblasts, endothelial and epithelial cells) and primary PBMCs; assay: Flow cytometry binding on normal cells; type: cell-based
# Experimental: (§1) Cells were harvested as single cell suspensions using trypsin. 1E5 cells were used per sample, and incubated with 100 μl of mAb culture supernatant for 30 min. Cells were then washed with 1% bovine serum albumin in PBS, and further incubated with 100 μl of goat anti-mouse antibody fluorescein isothiocyanate (FITC)-conjugated (1:500, DAKO, Denmark) for 15 min at 4° C. in the dark. Cells were again washed and resuspended in 200 μL of 1% BSA/PBS for analysis on Guava® easy Cyte 8HT Benchtop Flow Cytometer (Merck Millipore, USA). For interrogation of […] binding, cells were fixed with 4% PFA/PBS (Affymetrix, USA) at room temperature for 10 min, washed in PBS, and permeabilised with 0.1% triton/PBS for 5 min at room temperature, before proceeding with incubation with mAb supernatant/primary antibody. For staining with propidium iodide, PI was added to a final concentration of 5 μg/mL for 5 min just prior to analysis by the flow cytometer.
# [2] = test system: PC-9 Gefitinib resistant clones; assay: Propidium iodide staining (FL-3) for cytotoxicity of mAb alone; type: cell-based; conditions: cells incubated with the mAb alone
# Experimental: as §1
# [3] = test system: PC-9 Gefitinib resistant clones (CL75, CL86, CL131) and parental PC-9; assay: Flow cytometry binding on PC-9 and gefitinib resistant PC-9 clones; type: cell-based
# Experimental: as §1
# [4] = test system: NSCLC tissue; assay: IHC staining on NSCLC tissue microarray with adjacent normal (LC 1001 2a)
# Experimental: (§2) TMA slides containing FFPE tissues were first heated in an oven at 60° C. for 30 min to remove any solvents. The slides were then dewaxed and re-hydrated through sequential immersion in Histoclear (2×), 100% ethanol (2×), 95% ethanol, 70% ethanol, and finally in DI water.
# (§3) Heat-induced epitope retrieval was done in a solution containing 10 mM Tris Base, 1 mM EDTA, 0.05% Tween 20 at pH 9.0, and heated at 95° C. for 20 min. The container with the antigen retrieval solution and slides was then removed and allowed to cool to room temperature for an additional 20 min. The slides were then washed in DI water. Endogenous peroxidase activity was then blocked by incubation of the slides with 3% H2O2 in PBS for 30 min at room temperature. The slides were washed in DI water, followed by a blocking step with 10% normal goat serum in PBS for 30 min.
# The slides were then incubated with GR6A04 at 5 μg/mL in blocking solution overnight at 4° C. The slides were then washed an incubated with a polymer-based anti-mouse secondary antibody conjugated with HRP (DAKO, USA) for 30 min at room temperature, and developed with the recommended DAB chromogen substrate solution for 2 min, and counterstained with Gill's Hematoxylin solution.
# The stained slides were subsequently dehydrated through immersion in 50% ethanol, 70% ethanol, 90% ethanol, 100% ethanol (2×) and Histoclear (2×), before mounting with a glass cover slip. The slides were then imaged with the Zeiss AxioScan Digital Slide Scanner.
# [5] = test system: cancer cell lines; assay: IHC staining on FFPE cell line array; type: cell-based; conditions: gastric, lung, colorectal and pancreatic cancer cell lines
# Experimental: as §2, §3
# The slides were then incubated with GR6A04 at 5 μg/mL in blocking solution overnight at 4° C. The slides were then washed an incubated with a polymer-based anti-mouse secondary antibody conjugated with HRP (DAKO, USA) for 30 min at room temperature, and developed with the recommended DAB chromogen substrate solution for 2 min, and counterstained with Gill's Hematoxylin solution. […]
# [6] = test system: A549−GR6A04+ cells; assay: Subcutaneous xenograft model; type: in vivo, NCr Nude mice; conditions: 10 mg/kg, 3 doses on D0, D4 and D8, start at tumour size >150 mm3
# Experimental: Xenograft models were established using A549−GR6A04+ cells in NCr Nude mice. 5E6 cells in DMEM basal media were mixed at a 1:1 ratio with Matrigel, and injected subcutaneously at a volume of 200 μl. Tumours were allowed to form and reach a size of >150 mm^3, before they were randomised into 5 groups of 5 mice each. The groups were treated with mAbs as follows: (1) Buffer control; (2) GR6A04-MMAE; (3) Hu-GR6A04; (4) GR6A04; (5) MG1.45-MMAE isotype control. mAbs were injected via tail vein injection at a total volume of 100 μl. Each dose, were applicable, is at 200 μg (equivalent to 10 mg/kg), and treatment was done every 4 days, for a total of 3 doses (Day 0, 4 and 8). Tumour size was monitored over 50 days.
molecule,measurement,setting,value
"GR6A04: mouse IgG1, κ anti-CEACAM6 monoclonal antibody, VH SEQ ID NO:1, VL SEQ ID NO:2, binds N-glycosylated CEACAM6 (antibody, V domains shown, Isolated antibody fragment) VH: SGPELVKPGASVKMSCKASGNTFTSYVMHWVKQKPGQGLEWIGYINPYNDGTKYNEKFKGKATLTSDKSSSTAYMELSSLTSEDSAVYYCARSTARATPYFYAMDYWGQGTSVTVSS VL: DILMTQSPSSLAVTAGEKVTMRCKSSQSLLWSVNQNSYLSWYQLKQGQPPKLLLYGASIRESWVPDRFTGSGSGTDFTLTISNVHVEDLAVYYCQHNHGSFLPYTFGGGTKLEIK",binding on the cell surface of normal cells,[1],< 8%
same,"cell cytotoxicity (propidium iodide staining, FL-3)",[2],no apparent cell cytotoxicity
same,"cell cytotoxicity (propidium iodide staining, FL-3)",[2]; listed as GR 6A04,no inherent cytotoxity
same,binding,[3]; Gefitinib sensitive parental PC-9 and another GR PC-9 clone not used in immunisation,similarly high binding
same,percentage positive-binding (reactivity),"[3]; three PC-9 Gefitinib resistant clones used for immunisation, FL-1 gated at 2% on secondary-only control",> 50%
same,positive staining adenocarcinoma (cores positive/total),[4]; LC 1001 2a,9/18
same,positive staining squamous (cores positive/total),[4]; LC 1001 2a,4/27
same,staining of paired adjacent normal tissue,[4]; LC 1001 2a,did not have any positive staining
same,staining of paired adjacent normal tissue,"[4]; LC 1001 2a, listed as GR 6A04",negative staining
same,positive stained lung adenocarcinoma cores,[4]; focused NSCLC TMA,50%
same,positive stained squamous cell cancer cores,[4]; focused NSCLC TMA,15%
same,IHC reactivity on FFPE cell line array,[5],reactive
same,tumour growth versus buffer control,[6],slower growth compared to the buffer control
same,tumour growth versus buffer control,[6]; listed as Gr6A04,repression of tumour growth
